The text below walks through data of patent US20050282743A1, “Molecular interactions in cells” (Arbor Vita Corporation, priority 2001, published 2005).

Holding throughout (assay): G' assay
Test [1] addresses GST-Atrophin-1 Interacting Protein PDZ domain 2 (Homo sapiens (Human)), Q86UL8.
In test [2] the target is T1, GST-PSD95 PDZ domain 2 (Homo sapiens).
T1 chain: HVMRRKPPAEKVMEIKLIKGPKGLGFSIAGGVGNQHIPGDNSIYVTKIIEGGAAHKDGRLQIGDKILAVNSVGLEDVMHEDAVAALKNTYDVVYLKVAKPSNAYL

Test [3] concerns the target T2, GST-INADL PDZ domain 4 (Homo sapiens (Human)), Q8NI35.
T2 chain: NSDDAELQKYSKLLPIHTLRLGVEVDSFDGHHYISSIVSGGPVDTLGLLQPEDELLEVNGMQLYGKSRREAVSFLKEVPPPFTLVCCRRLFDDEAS

The target of test [4] is T3, GST-KIAA1719 PDZ domain 4 (Homo sapiens (Human)), Q9C0E4.
T3 chain: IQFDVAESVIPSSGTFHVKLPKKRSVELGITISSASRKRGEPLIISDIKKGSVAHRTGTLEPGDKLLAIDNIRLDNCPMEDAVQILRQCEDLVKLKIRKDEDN

Test [5] concerns the target T4, GST-novel PDZ gene PDZ domain 2 (Homo sapiens (Human)), Q9H5P4.
T4 chain: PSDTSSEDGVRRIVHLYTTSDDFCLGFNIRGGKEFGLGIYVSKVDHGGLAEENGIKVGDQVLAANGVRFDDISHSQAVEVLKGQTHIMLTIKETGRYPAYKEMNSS

For test [6], the target named is T5, GST-rat SHANK 3 PDZ domain 1 (rat), Q9JLU4.
T5 chain: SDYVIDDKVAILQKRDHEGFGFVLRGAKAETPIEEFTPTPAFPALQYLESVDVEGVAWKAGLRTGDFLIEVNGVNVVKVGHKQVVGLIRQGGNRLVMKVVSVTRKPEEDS

In test [7] the target is T6, GST-AF6 PDZ domain 1 (Homo sapiens (Human)), P55196.
T6 chain: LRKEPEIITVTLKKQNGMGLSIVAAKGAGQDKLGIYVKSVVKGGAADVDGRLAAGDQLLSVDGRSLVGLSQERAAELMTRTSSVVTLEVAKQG

In test [8] the target is T7, GST-KIAA0303 PDZ domain 1 (Homo sapiens (Human)), O15021.
T7 chain: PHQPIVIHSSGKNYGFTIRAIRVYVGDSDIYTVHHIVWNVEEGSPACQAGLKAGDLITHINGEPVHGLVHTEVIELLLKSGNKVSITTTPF

Test [9] concerns the target T8, GST-MUPP1 PDZ domain 12 (Homo sapiens (Human)), O75970.
T8 chain: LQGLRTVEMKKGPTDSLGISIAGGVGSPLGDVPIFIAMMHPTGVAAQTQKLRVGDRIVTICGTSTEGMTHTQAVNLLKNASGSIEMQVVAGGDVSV

Test [10] has as its target T9, GST-TIAM 2 PDZ domain 1 (Homo sapiens (Human)), Q8IVF5.
T9 chain: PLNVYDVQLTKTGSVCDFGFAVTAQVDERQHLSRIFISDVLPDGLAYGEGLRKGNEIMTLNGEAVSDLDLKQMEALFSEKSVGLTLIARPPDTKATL

Test [11] has as its target T10, GST-DLG1 PDZ domain 3 (Homo sapiens), Q12959.
T10 chain: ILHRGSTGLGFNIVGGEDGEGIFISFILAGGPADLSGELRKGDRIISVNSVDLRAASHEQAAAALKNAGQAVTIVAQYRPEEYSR

Test [12] deals with T11, GST-GRIP 1 PDZ domain 6 (Mus musculus (Mouse)), Q925T6.
T11 chain: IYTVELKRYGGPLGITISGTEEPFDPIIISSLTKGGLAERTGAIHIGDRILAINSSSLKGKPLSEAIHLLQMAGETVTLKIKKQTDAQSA

The target of test [13] is T12, GST-KIAA1415 PDZ domain 1 (Homo sapiens (Human)), Q8TCU6.
T12 chain: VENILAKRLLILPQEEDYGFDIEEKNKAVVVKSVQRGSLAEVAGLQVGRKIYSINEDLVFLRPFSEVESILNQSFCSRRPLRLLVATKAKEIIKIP

The target in test [14] is T13, GST-KIAA1719 PDZ domain 1 (Homo sapiens (Human)), Q9C0E4.
T13 chain: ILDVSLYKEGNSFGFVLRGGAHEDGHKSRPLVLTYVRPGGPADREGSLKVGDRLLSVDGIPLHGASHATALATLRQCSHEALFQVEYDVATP

Test [15] deals with T14, GST-KIAA1719 PDZ domain 5 (Homo sapiens (Human)), Q9C0E4.
T14 chain: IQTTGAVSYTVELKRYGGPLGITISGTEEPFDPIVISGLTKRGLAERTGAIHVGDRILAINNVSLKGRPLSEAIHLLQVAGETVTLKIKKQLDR

Test [16] deals with T15, GST-MUPP1 PDZ domain 4 (Homo sapiens (Human)), O75970.
T15 chain: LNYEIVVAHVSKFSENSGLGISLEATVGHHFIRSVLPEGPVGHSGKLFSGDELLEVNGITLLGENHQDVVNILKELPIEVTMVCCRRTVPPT

In test [17] the target is T16, GST-PDZK1 PDZ domain 1 (Homo sapiens (Human)), Q5T2W1.
T16 chain: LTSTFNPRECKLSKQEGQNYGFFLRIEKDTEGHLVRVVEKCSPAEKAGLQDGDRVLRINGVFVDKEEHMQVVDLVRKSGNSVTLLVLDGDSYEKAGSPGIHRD

The target of test [18] is T17, GST-SIP1 PDZ domain 2 (Homo sapiens (Human)), Q15599.
T17 chain: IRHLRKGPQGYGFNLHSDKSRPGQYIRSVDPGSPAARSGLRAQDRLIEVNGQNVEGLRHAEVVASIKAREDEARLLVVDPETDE

The target in test [19] is T18, GST-MUPP1 PDZ domain 9 (Homo sapiens (Human)), O75970.
T18 chain: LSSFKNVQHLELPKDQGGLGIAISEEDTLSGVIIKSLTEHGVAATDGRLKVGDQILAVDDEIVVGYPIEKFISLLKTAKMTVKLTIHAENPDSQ
Note: key of the grades not given here.

Chain of GST-Atrophin-1 Interacting Protein PDZ domain 2 (Homo sapiens (Human)), Q86UL8 (Q86UL8 other isoform, or with tags, fused parts or gaps): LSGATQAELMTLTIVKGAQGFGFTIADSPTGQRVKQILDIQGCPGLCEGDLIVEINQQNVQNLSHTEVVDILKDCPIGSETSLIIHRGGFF

B1: TAX (peptide)
peptide: QISPGGLEPPSEKHFRETEV
modifications: not checked
B1: the Classification in [1] and in test [2] was 1 A450 class throughout.

B2: alpha-2A Adrenergic receptor (peptide)
peptide: HDFRRAFKKILARGDRKRIV
modifications: not checked
Take B2: the Classification in [3] is 1 A450 class; in [4], 3 A450 class.

B3: KIA 1481 (peptide)
peptide: PIPAGGCTFSGIFPTLTSPL
modifications: not checked
As to B3, the Classification in test [5] was determined as 1 A450 class.

B4: a-actinin 2 (peptide)
peptide: VPGALDYAAFSSALYGESDL
modifications: not checked
Turning to B4, the Classification in test [6] is 1 A450 class.

B5: CSPG4 (chondroitin sulfae proteoglycan 4, melanoma-associated) (peptide)
peptide: ELLQFCRTPNPALKNGQYWV
modifications: not checked
On to B5, for which the Classification in test [7] came out at 5 A450 class; in test [8], 1 A450 class; in test [9], 1 A450 class; in [10], 3 A450 class.

B6: ephrin B2 (peptide)
peptide: ILNSIQVMRAQMNQIQSVEV
modifications: not checked
With B6, the Classification in [11] is 1 A450 class; in test [12], 3 A450 class; in test [13], 1 A450 class; in [14] it was 1 A450 class; in test [15], 4 A450 class; in test [16] it was 1 A450 class. Moreover, the Classification turned out to be 1 A450 class in [17] and 2 A450 class in test [18].

B7: MINT-1 (peptide)
peptide: KTMPAAMYRLLTAQEQPVYI
modifications: not checked
B7 displayed a Classification in test [19] of 3 A450 class.
